From patent publication US20060084135

Molecular target: T1, p53-382 acetylated peptide (Fluor de Lys-SIRT1), RHKK(Ac)
T1 chain: RHKK

B1: recombinant human SIRT1 (protein)
chain: MADEAALALQPGGSPSAAGADREAASSPAGEPLRKRPRRDGPGLERSPGEPGGAAPEREVPAAARGCPGAAAAALWREAEAEAAAAGGEQEAQATAAAGEGDNGPGLQGPSREPPLADNLYDEDDDDEGEEEEEAAAAAIGYRDNLLFGDEIITNGFHSCESDEEDRASHASSSDWTPRPRIGPYTFVQQHLMIGTDPRTILKDLLPETIPPPELDDMTLWQIVINILSEPPKRKKRKDINTIEDAVKLLQECKKIIVLTGAGVSVSCGIPDFRSRDGIYARLAVDFPDLPDPQAMFDIEYFRKDPRPFFKFAKEIYPGQFQPSLCHKFIALSDKEGKLLRNYTQNIDTLEQVAGIQRIIQCHGSFATASCLICKYKVDCEAVRGDIFNQVVPRCPRCPADEPLAIMKPEIVFFGENLPEQFHRAMKYDKDEVDLLIVIGSSLKVRPVALIPSSIPHEVPQILINREPLPHLHFDVELLGDCDVIINELCHRLGGEYAKLCCNPVKLSEITEKPPRTQKELAYLSELPPTPLHVSEDSSSPERTSPPDSSVIVTLLDQAAKSNDDLDVSESKGCMEEKPQEVQTSRNVESIAEQMENPDLKNVGSSTGEKNERTSVAGTVRKCWPNRVAKEQISRRLDGNQYLFLPPNRYIFHGAEVYSDSEDDVLSSSSCGSNSDSGTCQSPSLEEPMEDESEIEEFYNGLEDEPDVPERAGGAGFGTDGDDQEAINEAISVKQEVTDMNYPSNKS
Km (+100 µM resveratrol), SIRT1 initial rate vs p53-382 acetylated peptide concentration at 3 mM NAD+: Km(+resveratrol, Δ)=1.8 µM
Km (control), SIRT1 initial rate vs p53-382 acetylated peptide concentration at 3 mM NAD+: Km(control, ▪)=64 µM
fold decrease of the acetylated peptide Km with 100 µM resveratrol: Its effect on the acetylated peptide Km was particularly striking, amounting to a 35-fold decrease
